The labels stand for the following.
T1: human MerTK-his protein (human, UniProt Q12866 21-505)
T1 construct: extracellular domain; also called hMerTK-His; human MerTK protein
T1 sequence (looked up): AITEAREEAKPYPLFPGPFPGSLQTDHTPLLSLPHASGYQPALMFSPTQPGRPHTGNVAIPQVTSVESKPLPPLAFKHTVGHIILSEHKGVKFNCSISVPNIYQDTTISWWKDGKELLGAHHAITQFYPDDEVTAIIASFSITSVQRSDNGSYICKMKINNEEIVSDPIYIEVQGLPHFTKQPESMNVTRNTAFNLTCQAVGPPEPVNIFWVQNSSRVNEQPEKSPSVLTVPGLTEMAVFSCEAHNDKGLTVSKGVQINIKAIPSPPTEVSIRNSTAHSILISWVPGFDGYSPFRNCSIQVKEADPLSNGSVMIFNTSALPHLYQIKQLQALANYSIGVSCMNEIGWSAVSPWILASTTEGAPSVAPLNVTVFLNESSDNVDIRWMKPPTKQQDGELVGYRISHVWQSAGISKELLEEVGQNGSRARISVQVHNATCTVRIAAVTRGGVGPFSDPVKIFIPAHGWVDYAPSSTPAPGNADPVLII

T2: human MerTK expressed on cells (human, UniProt Q12866 21-999)
T2 construct: whole, on cells; also called CHO-K1-hMerTK; CHO-K1-MerTK
T2 sequence (looked up): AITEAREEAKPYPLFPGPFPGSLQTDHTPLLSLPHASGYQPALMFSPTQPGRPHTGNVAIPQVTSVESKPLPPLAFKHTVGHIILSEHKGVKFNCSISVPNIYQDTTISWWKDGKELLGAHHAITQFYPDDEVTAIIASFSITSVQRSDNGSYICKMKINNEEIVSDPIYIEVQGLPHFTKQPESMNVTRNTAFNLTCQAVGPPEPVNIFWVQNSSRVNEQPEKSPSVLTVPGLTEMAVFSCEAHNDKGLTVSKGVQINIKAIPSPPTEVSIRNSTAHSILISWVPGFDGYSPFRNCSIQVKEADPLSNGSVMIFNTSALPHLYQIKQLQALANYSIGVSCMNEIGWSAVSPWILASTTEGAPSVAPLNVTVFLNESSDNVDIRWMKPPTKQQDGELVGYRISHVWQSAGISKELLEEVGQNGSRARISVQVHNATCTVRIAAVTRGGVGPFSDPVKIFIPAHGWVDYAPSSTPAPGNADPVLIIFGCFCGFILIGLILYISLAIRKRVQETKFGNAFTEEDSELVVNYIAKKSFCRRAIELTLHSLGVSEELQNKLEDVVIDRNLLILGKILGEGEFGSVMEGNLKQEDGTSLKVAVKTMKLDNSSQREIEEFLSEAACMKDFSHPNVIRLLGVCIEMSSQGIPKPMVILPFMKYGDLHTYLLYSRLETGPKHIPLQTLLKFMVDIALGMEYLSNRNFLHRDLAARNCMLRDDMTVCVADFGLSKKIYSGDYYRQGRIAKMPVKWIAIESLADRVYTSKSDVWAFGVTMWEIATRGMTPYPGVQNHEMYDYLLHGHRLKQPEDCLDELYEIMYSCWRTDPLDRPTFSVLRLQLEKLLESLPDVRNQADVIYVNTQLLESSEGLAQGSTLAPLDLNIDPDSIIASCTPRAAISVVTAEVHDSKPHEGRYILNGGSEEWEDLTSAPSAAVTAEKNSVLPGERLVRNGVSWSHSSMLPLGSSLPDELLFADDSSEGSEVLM

B1: 10F7D9 Hu-2 (antibody, V domains shown)
VH: QIQLVQSGSELKKPGASVKVSCKASGYTFTNYGMNWVRQAPGQGLEWMGWINTYTGEPTYADDFKGRFVFSLDTSVSTAYLQISSLKAEDTAVYYCATYGHYAWFAYWGQGTLVTVSS
VL: EIVLTQSPDFQSVTPKEKVTITCRASSSVSYMHWYQQKPDQSPKLLIKATSNLASGVPSRFSGSGSGTDFTLTINSLEAEDAATYYCQQWGTKPLTFGQGTKLEIK
notes: also called Hu-2 of 10F7D9
B2: 10F7D9 Hu-6 (antibody, V domains shown)
VH: B1 VH with I2V, V20I, S84N, S85N, Y95F
VL: B1 VL
notes: also called Hu-6 of 10F7D9
B3: 10F7D9 Hu-3 (antibody, V domains shown)
VH: B1 VH with Y95F
VL: B1 VL
notes: also called Hu-3 of 10F7D9
B4: 10F7D9 Hu-8 (antibody, V domains shown)
VH: B1 VH
VL: B1 VL with L45P, L46W
notes: also called Hu-8 of 10F7D9
B5: 10F7D9 Hu-14 (antibody, V domains shown)
VH: B1 VH
VL: B1 VL with L45P, L46W, K48Y, Y86F
notes: also called Hu-14 of 10F7D9
B6: 10F7D9 Hu-4 (antibody, V domains shown)
VH: B1 VH with E46K, Y95F
VL: B1 VL
notes: also called Hu-4 of 10F7D9
B7: 10F7D9 Hu-1 (antibody, V domains shown)
VH: B1 VH with I2V, T98R
VL: B1 VL
notes: also called Hu-1 of 10F7D9
B8: 265F11B5Hu-6 (antibody, V domains shown)
VH: QVQLVQSGAEVKKPGASVKVSCKASGYTFTTYDINWVRQAPGQGLEWMGWIYPRDGYTKYNEKFKGRVTMTTDTSTSTAYMELRSLRSDDTAVYYCTRGYYDNLYYFDYWGQGTTVTVSS
VL: EIVLTQSPDFQSVTPKEKVTITCSASSIISSNYFHWYQQKPDQSPKLLIKRTSNLASGVPSRFSGSGSGTDYTLTINSLEAEDAATYYCQQGRSVPLTFGQGTKLEIK
B9: 265F11B5Hu-3 (antibody, V domains shown)
VH: B8 VH with M48I, V68A, Y95F
VL: B8 VL with Y72F
B10: 265F11B5Hu-5 (antibody, V domains shown)
VH: B8 VH with T97A
VL: B8 VL
B11: 265F11B5Hu-7 (antibody, V domains shown)
VH: B8 VH with M48I, V68A, Y95F
VL: B8 VL
B12: 265F11B5Hu-2 (antibody, V domains shown)
VH: B8 VH
VL: B8 VL with Y72F
B13: 265F11B5Hu-10 (antibody, V domains shown)
VH: B8 VH
VL: B8 VL with K50Y
B14: 265F11B5Hu-9 (antibody, V domains shown)
VH: B8 VH with T97A
VL: B8 VL with K50Y
B15: 265F11B5Hu-1 (antibody, V domains shown)
VH: B8 VH with T97A
VL: B8 VL with Y72F
B16: 265F11B5Hu-4 (antibody, V domains shown)
VH: B8 VH with M48I, V68A, M70L, T71A, T72V, Y95F
VL: B8 VL with Y72F
B17: 265F11B5Hu-8 (antibody, V domains shown)
VH: B8 VH with M48I, V68A, M70L, T71A, T72V, Y95F
VL: B8 VL

The source of these data is US20260028422A1 (CONCEPT TO MEDICINE BIOTECH, published 2026).

Numbering of substitutions follows the chain as printed.

As usually defined, the EC50 is the concentration at which the effect is half-maximal. Higher therefore signals a less potent agent. For orientation: Kd means the concentration at which binding is half-saturated. As usually defined, the koff is the first-order rate constant of dissociation. What is called kon is a measure of how fast the partners come together. A low value points to slow association.

One test deals with T1, human MerTK-his protein. Kind of test: ELISA, plate coated with human MerTK-his, OD 450nm. As to the method:
To evaluate the binding activity, the chimeric mAbs were subjected to ELISA test. Briefly, 96-well plates were coated with human or cyno MerTK-his protein at 2 μg/mL in PBS, 100 μL/well at 4° C. overnight, then blocked with 150 μL/well of 1% BSA. Five-fold dilutions of MerTK antibodies starting from 20 nM were added to each well and incubated for 1 hour at room temperature. The plates were washed with PBS/Tween-20 and then incubated with goat anti-human IgG Fe antibody conjugated with Horse Radish Peroxidase (HRP) for 30 minutes (mins) at room temperature. After washing, the plates were developed with TMB substrate and subsequent stop solution was added to complete the reaction. The signal from each well was read by spectrophotometer at OD 450 nm.
To evaluate the antigen binding activity, the humanized antibodies were subjected to ELISA test as described before.
B1 yielded an EC50 of 0.035 nM.
Molecule B2 registered an EC50 of 0.033 nM.
On the same count and under the same terms, to B3 belongs 0.034 nM.
B4: the response was half-maximal at 0.0024 nM (EC50).
Same read-out and setting: the value for B5 was 0.027 nM; that for B6 was 0.027 nM; that for B7 was 0.028 nM.
On the same count and under the same terms, to B8 belongs 0.044 nM.
Same read-out and setting: to B9 belongs 0.06 nM.
B10 came in with an EC50 of 0.062 nM.
The same measure, in the same setting: to B11 belongs 0.021 nM; to B12, 0.054 nM.
On the same count and under the same terms, to B13 belongs 0.045 nM; to B14, 0.059 nM.
The same measure, in the same setting: the value for B15 was 0.042 nM; that for B16 was 0.068 nM.
B17 gave an EC50 of 0.037 nM.

In another test the target is T2, human MerTK expressed on cells. As to the kind of experiment: FACS on CHO-K1 cells overexpressing human MerTK, MFI (PE). The procedure:
To evaluate the binding property to the antigen expressed on the cells, the chimeric monoclonal antibodies were analyzed for their binding to human MerTK overexpressed on CHO-K1 cells by FACS. Briefly, human MerTK overexpressing CHO-K1 (CHO-K1-MerTK) cells were firstly incubated with 5-fold serially diluted mAbs starting at 20 nM at 4° C. for 1 hour. After washing with FACS buffer, the PE conjugated anti-human IgG-Fc secondary antibody was added to each well and incubated at 4° C., for 30 mins. The mean fluorescence intensity (MFI) of PE were evaluated by QuantAnalyzer 16.
To evaluate the binding property to the antigen expressed on the cells, the humanized antibodies were analyzed by FACS as described before.
For B1, the midpoint of the response, the EC50, lay at 0.45 nM.
Same read-out and setting: the value for B2 was 0.45 nM; that for B3 was 1.2 nM; that for B4 was 0.1 nM.
Still for that read-out and setting: the value for B5 was 0.15 nM; that for B6 was 0.47 nM; that for B7 was 0.29 nM.

In the next test the target is T1, human MerTK-his protein. As to the kind of experiment: SPR Biacore 8K, antibody captured on Protein A chip, 50 nM antigen. As to the method:
To explore whether the humanized antibodies could maintain their binding kinetics, affinity ranking were performed with Biacore™. The antibodies were captured with a Protein A chips. Human MerTK-his protein at 50 nM was injected over captured antibodies for 180 s at a flow rate of 30 μL/min. The antigen was allowed to dissociate for 600 s. The experiment was carried out on a Biacore™ 8K. Data analysis was carried out using Biacore™ 8K evaluation software.
The molecule B8 displayed a Kd of 1.4 nM, a koff of 0.000278 s⁻¹ and a kon of 199000 M⁻¹ s⁻¹.
B9 registered a Kd of 1.02 nM, a koff of 0.000204 s⁻¹ and a kon of 199000 M⁻¹ s⁻¹.
Taken in the same sequence, the figures for B10 were 1.16 nM, 0.000232 s⁻¹ and 200000 M⁻¹ s⁻¹.
Taken in the same sequence, the figures for B11 were 0.719 nM, 0.000155 s⁻¹ and 216000 M⁻¹ s⁻¹.
Taken in the same sequence, the figures for B12 were 1.27 nM, 0.00025 s⁻¹ and 197000 M⁻¹ s⁻¹.
On to B13, for which the Kd turned out to be 2.52 nM, the koff was determined as 0.000463 s⁻¹ and the kon is 184000 M⁻¹ s⁻¹.
Taken in the same sequence, the figures for B14 were 2.17 nM, 0.000443 s⁻¹ and 204000 M⁻¹ s⁻¹.
Taken in the same sequence, the figures for B15 were 1.15 nM, 0.000232 s⁻¹ and 201000 M⁻¹ s⁻¹.
On to B16, for which the Kd turned out to be 0.856 nM, the koff turned out to be 0.000172 s⁻¹ and the association rate constant (kon) came out at 201000 M⁻¹ s⁻¹.
The molecule B17 yielded a Kd of 0.174 nM, a koff of 3.95e-05 s⁻¹ and a kon of 227000 M⁻¹ s⁻¹.

The target of another test is T2, human MerTK expressed on cells. Kind of test: FACS on CHO-K1 cells overexpressing human MerTK, MFI (AF488).
For B8, the EC50 was 0.17 nM.
Still for that read-out and setting: to B9 belongs 0.22 nM.
On the same count and under the same terms, the value for B10 was 0.17 nM; that for B11 was 0.14 nM.
On the same count and under the same terms, to B12 belongs 0.14 nM; to B13, 0.19 nM.
With B14, the EC50 amounted to 0.19 nM.
The same measure, in the same setting: the value for B15 was 0.16 nM.
B16 came in with an EC50 of 0.13 nM.
Same read-out and setting: to B17 belongs 0.14 nM.
